Experimental data taken from patent EP0853661B1 (CAMBRIDGE ANTIBODY TECHNOLOGY LIMITED, dated 2000).

T1: human TGFβ2 (transforming growth factor beta 2) (human, UniProt P61812 303-414)
T1 construct: mature; Active dimer; also called TGFbeta2; rhTGF β2
T1 sequence (looked up): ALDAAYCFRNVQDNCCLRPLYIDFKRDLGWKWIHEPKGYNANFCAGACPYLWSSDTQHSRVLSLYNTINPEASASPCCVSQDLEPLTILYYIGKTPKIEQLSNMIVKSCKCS

T2: TGFβ3 (transforming growth factor beta 3) (UniProt P10600 301-412)
T2 construct: mature; also called TGFbeta3
T2 sequence (looked up): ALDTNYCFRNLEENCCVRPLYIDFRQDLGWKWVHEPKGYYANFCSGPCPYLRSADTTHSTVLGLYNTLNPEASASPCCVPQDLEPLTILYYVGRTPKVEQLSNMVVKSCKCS


Key:
[1] = biological target: T3, human TGFβ1 (transforming growth factor beta 1) (human, UniProt P01137 279-390); experiment: BIACore, scFv (35µl) injected over amine-coupled antigen on CM5 chip; chip as printed
T3 construct: mature; Active dimer; also called TGFbeta1

[2] = biological target: T1, human TGFβ2 (transforming growth factor …); experiment: as above
[3] = biological target: T1, human TGFβ2 (transforming growth factor …); experiment: cell-based or functional assay
[4] = biological target: T3, human TGFβ1 (transforming growth factor …); experiment: specificity ELISA, TGFβ isoforms coated at 0.2µg/ml
[5] = biological target: T2, TGFβ3 (transforming growth factor beta …); experiment: A549 cell radioreceptor assay, inhibition of 125I-TGFβ3 binding to receptors
[6] = biological target: T2, TGFβ3 (transforming growth factor beta …); experiment: BIAcore 2000, antigen immobilised, antibody as analyte; koff divided by kon
[7] = biological target: T1, human TGFβ2 (transforming growth factor …); experiment: cell-based or functional assay; remark: listed apart in the source
[8] = biological target: T2, TGFβ3 (transforming growth factor beta …); experiment: BIAcore 2000, antigen immobilised, antibody as analyte
[9] = biological target: T2, TGFβ3 (transforming growth factor beta …); experiment: cell-based or functional assay
[10] = biological target: T2, TGFβ3 (transforming growth factor beta …); experiment: A549 cell radioreceptor assay
[11] = biological target: T2, TGFβ3 (transforming growth factor beta …); experiment: BIAcore 2000, ratio of dissociation constants
[12] = biological target: T2, TGFβ3 (transforming growth factor beta …); experiment: cell-based or functional assay; remark: listed apart in the source
[13] = biological target: T1, human TGFβ2 (transforming growth factor …); experiment: BIACore, IgG4 over TGFβ2-coated chip

T3 sequence (P01137 279-390 limits assumed): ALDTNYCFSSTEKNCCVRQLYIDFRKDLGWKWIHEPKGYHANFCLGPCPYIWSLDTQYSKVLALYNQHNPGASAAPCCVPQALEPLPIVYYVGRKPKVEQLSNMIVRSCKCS

| total increase in resonance units (RU) [1] | total increase in resonance units (RU) [2] | I.C.50 in TF1 assay (neutralisation of the TGFβ2 inhibition of IL-5 induced TF1 cell proliferation) [3] | Binder | also measured |
| --- | --- | --- | --- | --- |
| 480 RU | 71 RU | 8 nM | 6A5 scFv (scFv) EVQLVESGGGVVQPGRSLRLSCAASGFTFSSYGMHWVRQAPGKGLEWVAVIWYDGSNKYYADSVKGRFTISRDNSKNTLYLQMDSLRAEDTAVYYCGRTLESSLWGQGTLVTVSSGGGGSGGGGSGGGGSSSELTQDPAVSVALGQTVRITCQGDSLRSYYASWYQQKPGQAPVLVIYGKNNRPSGIPDRFAGSNSGNTASLTITGAQAEDEADYYCSSRDSSGNHVVFGGGTKLTVLG |  |
|  |  |  | 10A6 scFv (scFv) QVQLVESGGGVVQPGRSLRLSCAASGFTFSSYGMHWVRQAPGKGLEWVAVISYDGSNKYYADSVKGRFTISRDNSKNTLYLQMNSLRAEDTAVYYCAKTGEYSGYDSSGVDVWGKGTTVTVSSGGGGSGGGGSGGGGSHVILTQDPAVSVALGQTVRITCQGDSLKSYYASWYQQKPGQAPVLVIYGENSRPSGIPDRFSGSSSGNTASLTITGAQAEDEADYYCNSRDSSGTHLEVFGGGTKLTVLG | fold ELISA signal on TGFβ1 against the signal on TGFβ2 and TGFβ3 [4]: ≥ 5 fold |
|  |  | 15 nM | 6B1 scFv (scFv) EVQLVESGGGVVQPGRSLRLSCAASGFTFSSYGMHWVRQAPGKGLEWVAVIWYDGSNKYYADSVKGRFTISRDNSKNTLYLQMDSLRAEDTAVYYCGRTLESSLWGQGTLVTVSSGGGGSGGGGSGGGGSSSELTQDPAVSVALGQTVRITCQGDSLRSYYASWYQQKPGQAPVLVIYGKNNRPSGIPDRFSGSSSGNTASLTITGAQAEDEADYYCNSRDSSSTHRGVFGGGTKLTVLG |  |
| 686 RU | 77 RU | 1.5 nM | 6H1 scFv (scFv) EVQLVESGGGVVQPGRSLRLSCAASGFTFSSYGMHWVRQAPGKGLEWVAVIWYDGSNKYYADSVKGRFTISRDNSKNTLYLQMDSLRAEDTAVYYCGRTLESSLWGQGTLVTVSSGGGGSGGGGSGGGGSDVVMTQSPSSLSASVGDRVTITCRASQGISNYLAWYQQKPGKAPKLLIYKASTLESGVPSRFSGSGSGTEFTLTISSLQPEDFATYYCQQSYSTPRTFGQGTKVDIKR |  |
|  |  | 11 nM | 6B1 IgG4 (antibody, V domains shown) VH: EVQLVESGGGVVQPGRSLRLSCAASGFTFSSYGMHWVRQAPGKGLEWVAVIWYDGSNKYYADSVKGRFTISRDNSKNTLYLQMDSLRAEDTAVYYCGRTLESSLWGQGTLVTVSS VL: SSELTQDPAVSVALGQTVRITCQGDSLRSYYASWYQQKPGQAPVLVIYGKNNRPSGIPDRFSGSSSGNTASLTITGAQAEDEADYYCNSRDSSSTHRGVFGGGTKLTVLG | IC50 [5]: 4 nM; Kd [6]: 10 nM; IC50 in the TF1 neutralisation assay (6B1 IgG4 from cell line 5D8-2A6) [7]: 1.8 nM; koff [8]: 0.00045 s⁻¹; kon [8]: 45000 M⁻¹ s⁻¹; TF1 cell proliferation assay IC50 (nM IgG) [9]: 11 nM; cross-reactivity with TGFβ3 relative to TGFβ2 [10]: < 2%; cross-reactivity with TGFβ3 (ratio of dissociation constants for TGFβ3 and TGFβ2) [11]: 9% |
|  |  | 150 nM | 6A5 IgG4 (antibody, V domains shown) VH: EVQLVESGGGVVQPGRSLRLSCAASGFTFSSYGMHWVRQAPGKGLEWVAVIWYDGSNKYYADSVKGRFTISRDNSKNTLYLQMDSLRAEDTAVYYCGRTLESSLWGQGTLVTVSS VL: SSELTQDPAVSVALGQTVRITCQGDSLRSYYASWYQQKPGQAPVLVIYGKNNRPSGIPDRFAGSNSGNTASLTITGAQAEDEADYYCSSRDSSGNHVVFGGGTKLTVLG |  |
|  |  | 100 nM | 6H1 IgG4 (antibody, V domains shown) VH: EVQLVESGGGVVQPGRSLRLSCAASGFTFSSYGMHWVRQAPGKGLEWVAVIWYDGSNKYYADSVKGRFTISRDNSKNTLYLQMDSLRAEDTAVYYCGRTLESSLWGQGTLVTVSS VL: DVVMTQSPSSLSASVGDRVTITCRASQGISNYLAWYQQKPGKAPKLLIYKASTLESGVPSRFSGSGSGTEFTLTISSLQPEDFATYYCQQSYSTPRTFGQGTKVDIKR | IC50 in the TF1 neutralisation assay (6H1 IgG4 from a CHO cell line) [7]: 15 nM; IC50 of neutralisation of TGFβ2 in the TF1 cell proliferation assay [7]: 12 nM; IC50 of neutralisation of TGFβ3 in the TF1 cell proliferation assay [12]: ~20 nM |
|  |  |  | 27C1/10A6 IgG4 (antibody, V domains shown) VH: QVQLVESGGGVVQPGRSLRLSCAASGLTFSSYDMHWVRQPPAKGLEWVAVISYDGSSKYYADSVKGRFTISRDNSKNTLYLQMNSLRAEDTAVYYCARTGEYSGYDTSGVELWGQGTTVTVSS VL: HVILTQDPAVSVALGQTVRITCQGDSLKSYYASWYQQKPGQAPVLVIYGENSRPSGIPDRFSGSSSGNTASLTITGAQAEDEADYYCNSRDSSGTHLEVFGGGTKLTVLG | fold higher dissociation constant for TGFβ2 compared to TGFβ1 [13]: ≥ 10 fold |
| 616 RU | 115 RU | 90 nM | 14F12 scFv (scFv) EIQLVESGGGVVQPGRSLRLSCAASGFTFSSYAMHWVRQAPAKGLEWVAVISYDGSNKYYADSVKGRFTISRDNSKNTLYLQMNSLRAEDTAVYYCARAGLETTWGQGTLVTVSSSGGGGGSGGGGSGGGGSSSELTQDPAVSVALGQTVRITCQGDSLRNYYANWYQQKPGQAPVLVIYGKNNRPSGIPDRFSGSSSGNTASLTITGARAEDEGVYYCNSRDSSGAVFGGGTKLTVLG |  |
